From the Human Domainome abundance scans (Beltran et al. 2025)

B1: CD2-associated protein, residues 109 to 169; numbered along this chain, Q9Y5K6 (parent)
chain: KKRQCKVLFEYIPQNEDELELKVGDIIDINEEVEEGWWSGTLNNKLGLFPSNFVKELEVTD

Variants of: B1
Assay: abundance fitness (aPCA) (normalised: wild type 0, dead -1); higher = more abundant; growth selection in yeast, the domain comes from the species named
Conditions: Homo sapiens

Abundance fitness, by site and new letter:
L57: S -0.601; E -0.133; N -0.69; I 0.241; G -0.864; F -0.148; P -0.508; Q -0.485; K -0.263; A -0.585; R -0.64; V -0.239; W -0.486; T -0.269; C -0.041
V54: N -0.84; Q -0.546; A -0.52; C 0.125; M -0.63; F -0.416; G -0.661; P -0.816; R -0.969; T -0.222; S -0.94; L -0.753; I -0.113; W -0.903
V59: Y 0.036; H -0.012; A 0.001; S 0.163; L 0.013; Q -0.166; I -0.087; F 0.229; P -0.138; K -0.283; W -0.117; C -0.123; E 0.174; R -0.131; T 0.01; N -0.342; M -0.219
N43: F -0.137; M -0.144; Y -0.553; S -0.337; V -0.679; C -0.19; G -0.09; P -0.791; L -0.489; R 0.061; Q -0.275; T -0.835; E -0.333; K -0.544; H -0.014
L46: Y 0.011; A 0.031; C 0.127; W 0.013; Q 0.022; K 0.069; M 0.006; H 0.035; E 0.138; D 0.034; V 0.047; S 0.113; T 0.151; I 0.169; P -0.196; N 0.074; F 0.092; G -0.303
E56: F -0.406; K 0.16; Q -0.291; W -0.769; C 0.034; D -0.505; S -0.32; L -0.058; H -0.666; I -0.225; T -0.033; V -0.105; A -0.366; P -0.224; Y -0.717
K45: Q 0.04; A -0.779; R -0.066; I -0.433; C -0.065; E -0.453; L -0.638; S -0.603; N -0.183; V -0.556; F -0.695; M -0.55; T -0.458; Y -0.273
K55: V -0.146; A -0.01; D -0.313; L -0.29; T -0.163; G -0.131; P -1.05; E 0.127; Q 0.064; N -0.193; R 0.017; S -0.259; H -0.035; C -0.142; I -0.077; M 0.009
T60: H 0.045; M -0.257; E 0.019; K -0.006; Q 0.039; S -0.039; C -0.183; Y -0.489; V -0.399; W -0.198; D 0.183; R -0.366; L 0.01
L48: Q -0.298; K 0.197; T -0.021; S -0.438; R 0.273; I -0.022; G -0.618; N -0.187; C -0.094; W -0.201; H -0.291; Y -0.033; P -0.403; D -0.821; E -0.539; F -0.19; V -0.067; M -0.107
S51: G -0.35; E -0.762; W -0.093; M -0.138; F -0.431; V -0.069; Q -0.307; P -0.429; D -0.324; N -0.769; K -0.12; T -0.047
